For 1 molecule, IC50 of Noggin (0.16 to 160 nM) on ALP activity and Alizarin Red staining (calcium deposition) of ATDC5 cells stimulated with 10 nM WT BMP-2, day 7 and IC50 of Noggin (0.16 to 160 nM) on ALP activity and Alizarin Red staining (calcium deposition) of ATDC5 cells stimulated with 10 nM N102D BMP-2, day 7 results are on record in publication PMC9929448.

For test [1], the target named is T1, Bone morphogenetic protein 2 (BMP-2), wild type, mature form (human).
T1 sequence (P12643 whole entry, looked up): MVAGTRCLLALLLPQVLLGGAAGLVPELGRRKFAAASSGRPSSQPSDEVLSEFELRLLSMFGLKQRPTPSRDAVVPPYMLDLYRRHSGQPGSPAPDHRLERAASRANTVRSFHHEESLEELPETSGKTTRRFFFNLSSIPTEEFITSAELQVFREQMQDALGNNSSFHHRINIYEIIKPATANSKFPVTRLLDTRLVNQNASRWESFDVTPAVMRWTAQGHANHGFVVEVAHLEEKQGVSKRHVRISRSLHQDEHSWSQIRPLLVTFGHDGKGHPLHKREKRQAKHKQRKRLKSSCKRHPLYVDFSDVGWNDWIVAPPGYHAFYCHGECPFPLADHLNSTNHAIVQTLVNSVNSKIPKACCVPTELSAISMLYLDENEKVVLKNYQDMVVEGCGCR

The target of test [2] is BMP-2 N102D mutant, mature form (human).

B1: Noggin (residues 28-232) (natural protein)
chain: MQHYLHIRPAPSDNLPLVDLIEHPDPIFDPKEKDLNETLLRSLLGGHYDPGFMATSPPEDRPGGGGGAAGGAEDLAELDQLLRQRPSGAMPSEIKGLEFSEGLAQGKKQRLSKKLRRKLQMWLWSQTFCPVLYAWNDLGSRFWPRYVKVGSCFSKRSCSVPEGMVCKPSKSVHLTVLRWRCQRRGGQRCGWIPIQYPIISECKCSC
modifications: biotin (biotinylated Noggin in the BLI experiments); methionine oxidation, mainly on the N-terminal methionine, in part of the sample
For the molecule B1, the IC50 of Noggin (0.16 to 160 nM) on ALP activity and Alizarin Red staining (calcium deposition) of ATDC5 cells stimulated with 10 nM WT BMP-2, day 7 in test [1] was 8 nM. For the same molecule, in test [2], the IC50 of Noggin (0.16 to 160 nM) on ALP activity and Alizarin Red staining (calcium deposition) of ATDC5 cells stimulated with 10 nM N102D BMP-2, day 7 was 8 nM.
